Test system: K4 kissing-loop RNA reporter
Experiment: apparent KD of K4 kissing-loop reporter; higher = weaker reporter binding
Settings: Eterna round: R107
Protocol: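 RNA-MaP round R107: designed RNA switches with theophylline, tryptophan, arginine or FMN aptamers are transcribed on-chip within common flanks. They are titrated with a labelled K4 kissing-loop RNA reporter in RNA-MaP buffer (100 mM Tris pH 7.5, 80 mM KCl, 4 mM MgCl2), without ligand or with the indicated ligand. Median apparent KD per design.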

[1] = input ligand: theophylline 20 uM
[2] = input ligand: tryptophan 2.4 mM
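Note: bound reporter read as fluorescence of individual clusters on recovered sequencing chips by microscopy, with normalized cluster intensities fitted with a binding model.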

Sequence	apparent KD of K4 kissing-loop reporter (input ligand: FMN 200 uM)	apparent KD of K4 kissing-loop reporter (input ligand: arginine 13.2 mM)	apparent KD of K4 kissing-loop reporter (input ligand: none)	apparent KD of K4 kissing-loop reporter [1]	apparent KD of K4 kissing-loop reporter [2]
GGAUUGCGUUCGGCCGCCACUAGACUACAUUCCACGCCCGACCCGUUUUUAAGUGAUGUUUAAACUAGGACCGGGAACCGAUUUC [theeternabot_exclusion_KL_Trp_B_33]	435 nM	291 nM	395 nM	388 nM	–
GGAUUUGAGUGAUGUUUAAAACGAGUGUCCAAGGAUAUUGCCCAAACAAGAAGGUGGGCAUGCUUUUGCGAUAAUCAACGGAGAC [theeternabot_exclusion_KL_FMN_A_9]	408 nM	666 nM	451 nM	606 nM	291 nM
GGCAGUGAUGUUGCCAGUGGCAGAUGAGAAGGAGCGUGGUGAGACACAGGUAGGUCGCUCAUUGAAAUUGCUGUCACUAAAAUGC [#5]	289 nM	322 nM	266 nM	234 nM	215 nM
GGCAGUGAUGUUGCCUAAGCAACGCAUGCAGAGGAUAUUCGUUCGGGAAGAAGGCUGCAGCGUUCUCUCGCGAGUGAUGUUCGCG [Same State FMN A GF 23]	182 nM	137 nM	165 nM	165 nM	162 nM
GGCGGCUGCGCGCAAGCGCAGCCGGCCGAUACCAGCGCGACGGCGCGCCCUUGGCAGCGGCGCCGAGUGAUGUUCGGCCUGCCGG [#2 Same State - Theophylline A Attempt #19 (HarryS)]	433 nM	380 nM	738 nM	418 nM	416 nM
GGGAGAAGAGCGGCCGCCACUCAGACAGCAGCAGAAUAUAGUGAUGUUAUAUAGGAAAGGCGGAGGAGGACCGGGCUUAAGAGGG [#20 K4 Tryptophan B Same State]	308 nM	303 nM	278 nM	362 nM	316 nM
GGGAGAGCGCGAAGGAGCGCCCUGACAGGUUGCUGCCGUGGGCAGUGAUGUUGCUCAGUCCGGCAGGUAGGUCGCGUGCUCUCCC	178 nM	148 nM	192 nM	200 nM	177 nM
GGGAGUAGUGCGGCCGCCACUGAGAAAGAAGAAGAAUAUAGUGAUGUUAUGUAGGAAAGGAAGAACAGGACCGGGCAUUAGAUUU [SSTRyptB.G]	455 nM	432 nM	477 nM	387 nM	270 nM
GGGCCUGGGCCCGGAAGGGCCUGGGCCCGUUAGGAUAUGACGUGAUUCAGAAGGGAUGGGUGGAGUGAUGUUCCACCCGAGAGGG [#2 Same State - FMN A Attempt #25 (HarryS)]	85.9 nM	90.5 nM	81.5 nM	73.1 nM	63.3 nM
GGGCUGGUGCUAGGAUAUGCGAUGAAUGCUCAGAAAACCUUGAGUCCGCAGUGAUGUUGCGGCACCGCAGAAGGAGCUAAGGCUC [Reorinraor]	129 nM	138 nM	111 nM	171 nM	127 nM
GGGUGGCAGACGGCCGCCACUCUUAGCAGCCAGUGAGUGAUGUUCGUGGCGGAGUGAUGUUCCUAGAGGACCGGGUUUGUUGUUC [Same State Tryptophan B GF 20]	413 nM	259 nM	478 nM	412 nM	318 nM
GGGUGGCAGGCGGCCGCCACUCUUAGCAGCCAGUGAGUGAUGUUCGUGGCGGAAGAAUGUUCGUAGAGGACCGGGUUUGUUGUUC [Same State Tryptophan B GF 21]	262 nM	180 nM	257 nM	254 nM	216 nM
GGUAGCAUGGCGGCCGCCACUCGGACGACAUAGCACAUGUCGACCAGUGAUGUUGGUUCAAACACGAGGACCGGGCCAUGCUACC	724 nM	715 nM	798 nM	629 nM	135 nM
GGUAGCAUGGCGGCCGCCACUUAUGUUCACAUAGUGAUGUUAUGUUCACAUUUAUGGCCCUGCUUAAGGACCGGGCCAUGCUACC	118 nM	90.3 nM	105 nM	82.1 nM	272 nM
GGUAGCAUGGCGGCCGCCACUUUGCACCUUUUCUUUUCUUUUGGUGCUUCACGAGUGAUGUUCGUAAGGACCGGGCCAUGCUACC	259 nM	217 nM	261 nM	213 nM	195 nM
GGUCCGCACAUGAGUGAUGUUCAUGUAGAUACCAGUAUCGAAAGAUACCCUUGGCAGCUACGGCACGGACCGGCGGGAAACCGCC	213 nM	200 nM	194 nM	291 nM	184 nM
GGUCCGGGCUCGGCCGCCACUCCCUCCUGCCGCAAGGUGGGAUACCGAGUGAUGUUCGGUUGGAGGAGGACCGGGAGCCCGGACC [#2 Exclusion - Tryptophan B Attempt #14 (HarryS)]	115 nM	124 nM	121 nM	133 nM	118 nM
GGUGGACUAGUCGAGUGAUGUUCGAGGCAUCGAGGACCGGUACGGCCGCCACUCGCAAAUCUACCGUGCGUUAACCACCAAAGUG [theeternabot_sameState_KL_Trp_A_37]	295 nM	152 nM	304 nM	317 nM	344 nM
GGUGUUGUUUGUGCUGUUUUCCUCGUUUCUCGAGGACCGGUACGGCCGCCACUCGAGUGAUGUUUGGGUAGCGAUCCUUGUUAGU [Bdazzled - #6 Exc. Tryptophan A]	335 nM	215 nM	313 nM	272 nM	383 nM
GGUUCGAGUGAUGUUCGGGUCGAUUGGGAAGGAGCGCCCGGAAGGGCAGGUAGGUCGCCCGGGCCGCGCGGGAAACCGCGCGUCC [#2 Same State - Arginine A Attempt #7 (HarryS)]	216 nM	121 nM	175 nM	147 nM	144 nM
GGUUCUGGAAUCGAGUGAUGUUCGGUGUUGCAGGAUAUAGAGAGAUCUAGAAGGGCAGUUUGUAUUUUAUUGAGUGAUUUUCUUU [Last Minute #3]	84 nM	83.1 nM	106 nM	106 nM	93.4 nM
GGUUGAAGUACCCGGAGUGAUGUUCCGGAUACCAGCAAACCAACUUGCCCUUGGCAGCCGUAUAGCGUCCGGUGGACCGAGCAUA [Soriesreve]	98.5 nM	70.3 nM	77.4 nM	76.2 nM	78.7 nM

Sequence	apparent KD of K4 kissing-loop reporter (input ligand: FMN 200 uM)	apparent KD of K4 kissing-loop reporter (input ligand: arginine 13.2 mM)	apparent KD of K4 kissing-loop reporter (input ligand: none)	apparent KD of K4 kissing-loop reporter [1]	apparent KD of K4 kissing-loop reporter [2]
GGUUUAUAGGAGGAUACCAGUACGGAUAAAGUACGUUAAUAGUAGAGUGAUGUUCUAAAGUACCCUUGGCAGCUUAGAUUAAGUU [ExTheophylB.J]	72 nM	142 nM	106 nM	110 nM	64.4 nM
GUACGCUCUCGAGUGAUGUUCGGUAAUCCUUAGGAUAUCGCUUUUGCGAGAAGGAAGGGAAUGAGGAAACUCGUUCUGAGUGUAC [FMN A 21]	523 nM	299 nM	366 nM	481 nM	743 nM
GUACGCUUCCGAGUGAUGUUCGGUAAUAGUUAGGAUAUCGUUUUUUCGAGAAGGAACUGAAUGAGGAAACUCGUUCGAAGUGUAC [FMN A 16]	395 nM	266 nM	380 nM	424 nM	266 nM
GUAGACAGGCUGCGAACCUAGUCUACAGACUAGGAUAUCAGGAAACUGAGAAGGAGUCUAGUUGCAGUGAUGUUGCAAGAAUAAU [KL-SSFMN-A25]	81.3 nM	125 nM	94.6 nM	135 nM	84.7 nM
GUAGGAUGAGGAGGAGGAUGAAUUACUGAAGGAGCGCAUAUUUUUGCAGGUAGGUCGCGGUAAAGAAGUAUAGUGAUGUUAUAUA [SSArgA.J]	410 nM	434 nM	381 nM	624 nM	304 nM
GUAGUUGCGCAAGGAUAUUAGUUAAGUGAUGUUUGAUUCGGUAUUGUUUACGUACACUGACCCGAUUAAGAAGGUGCGGGCAGCG [theeternabot_exclusion_KL_FMN_B_50]	604 nM	582 nM	580 nM	343 nM	369 nM
GUAUGUGGAAACACGUACUUGUAUCCUAAGCAGGAUAUGCGGAAACGCAGAAGGGCUACCAGCGAGUUUAUCCAGUGAUGUUGGA [Ex FMN A 12]	289 nM	235 nM	269 nM	264 nM	288 nM
GUCCAACCUGGAGGAUAUCUGCUGUCCAGUGAUGUUGGACACUUUAGUAAAGGCCGGGUAGCCCGCAGAGAAGGCCGGAGUUGCC [Arceer]	310 nM	328 nM	375 nM	464 nM	327 nM
GUCCCGAGUGAUGUUCGGGUCGUUUGGGAAGGAGCGCCCGGAAGGGCAGGUAGGUCGCCCGGACCGUGCAGGUAACUGUGCGGCC [#2 Same State - Arginine A Attempt #18 (HarryS)]	176 nM	146 nM	181 nM	196 nM	178 nM
GUGCAGUGAUGUUGCACGAGGAAAGACGAUACCAGCCGUAAAUAAGGCCCUUGGCAGCGUGGACUAGCAUAAAGUAUGCUAGCCU [Isenaonle]	118 nM	104 nM	123 nM	116 nM	96.5 nM
GUGCGCGCGGCGGCCGCCACUCGCAUGAGAGUGAUGUUCUUGCCCGGGCCGCAAGGCCCGGGUGUGAGGACCGGGCCGGGCUGCG [#2 Same State - Tryptophan B Attempt #26 (HarryS)]	115 nM	1.09 nM	180 nM	0.148 nM	425 nM
GUUACUUCAGAAGGAUAUUAGUAAACAACACGGUAGUGAUGUUACCGUUAUCAAGCCCGGCUUCACUAAGAAGGUCUCCACCGCG [theeternabot_sameState_KL_FMN_B_23]	52 nM	67.9 nM	52.9 nM	70 nM	54.1 nM
GUUCGGAUGCGGGAUACCAGCGUACCGAGCAAGCUUCGGGUAGUGAUGUUAUCUGAAUUACGCCCUUGGCAGCCCGCAUCCGGGC [clock_plus]	265 nM	234 nM	285 nM	212 nM	256 nM
GUUUGGCGGGCGGCCGCCACUCGGACGAGUCGCAGUGAUGUUGUGGUUUGCCAGUCGUCUUCAUCGAGGACCGGGUUUGUCGGGC [Exclusion Tryptophan B GF 19]	495 nM	380 nM	600 nM	571 nM	496 nM
UAAACCAAAUUACGUCACCUUGUCCAAUCUAAGGAUAUGUGAUUCCACAGAAGGUAGCCACGGGAGUGAUGUUCGCGUUAAGGCG [theeternabot_exclusion_KL_FMN_A_31]	475 nM	388 nM	465 nM	460 nM	419 nM
UAACUUGCAGUGAUGUUGCAAGAACUGGAUACCAGCAUGGAAACAUGCCCUUGGCAGCCAGAAGCUGGCUGACUGCAAGGUCAGC [Design4]	148 nM	142 nM	124 nM	136 nM	123 nM
UAAGAGGACCACUGCAAGAGUCCUCGAAUACGAGGACCGGUACGGCCGCCACUCGAUAACUUGCAGUGAUGUUGCAAGUAAGAAU [(T)''-(K)'-(T)'-(T1)-(T2)-(K1)-(K2)_Design1]	124 nM	129 nM	119 nM	144 nM	84.4 nM
UAAUAUAAUCUGUCGUAAACAAUAAUUAGUCAGGAUAUCGUAUAUUCGAGAAGGGACACUAUCUAGUGAUGUUAGAUAUUUCGUU [JR_SSFMNA_Sub026]	45.5 nM	76.4 nM	53.4 nM	67.5 nM	47.6 nM
UAAUAUAAUCUGUCGUUUACAAUAUUUAGUCAGGAUAUCGUAUAUUCGAGAAGGGACACUAUCUAGUGAUGUUAGAUAUUUCGUU [JR_ExcFMNA_Sub015]	51 nM	81.4 nM	59.6 nM	76.6 nM	54.6 nM
UAAUCCUAGUGAUAAUUAUCAAGUGGUGGGCGAGGACCGGUACGGCCGCCACUCGAAUAUGCAGUGAUGUUGUAAUCCGGAUAAU [Exclusion - Tryptophan A (Freestyle 7)]	639 nM	636 nM	534 nM	715 nM	441 nM
UAAUGCAUGACGGCCGCCACUAGUACUGGAGUGAUGUUGUGGUACGGCGGCAGUUUAGGGUGGACUAGGACCGGGUCAUGCAUAU [KL-XTryp-B10 #analogue]	461 nM	314 nM	339 nM	305 nM	356 nM
